Experimental data reported in patent publication US20240082346A1 (MAINLINE BIOSCIENCES SHANGHAI, published 2024).
Bridge positions count the residues as written; N and C are the ends. Square brackets hold non-standard residues; d marks the D form. * marks the point of attachment. 2Nal = N[C@@H](Cc1ccc2ccccc2c1)C(=O)O; Lys(iPr) = CC(C)NCCCC[C@H](N)C(=O)O; Palmitoyl = CCCCCCCCCCCCCCCC(=O)*; Lauroyl = CCCCCCCCCCCC(=O)*; hCys = N[C@@H](CCS)C(=O)O; PhAc = O=C(Cc1ccccc1)*; Bz = O=C(c1ccccc1)*; Mpa = O=C(O)CCS; iPr = CC(C)*

B1: cyclo[Mpa-Tyr-Lys(iPr)-(D-Arg)-2Nal-Gly-Cys]-Lys(iPr)-Gly-NH(Et) (peptide)
peptide: [Mpa]YK(iPr)[dR][2Nal]GCK(iPr)G-NHEt
modifications: disulfide 1-7; also: acetate salt
notes: Acetate salt; also called MLB-014
B2: MLB-033 (compound of Example 23; structure given only as drawing CHEM-US-00016) (peptide)
peptide: Ac-CYK(iPr)[dR][2Nal]GCK(iPr)G-NH2
modifications: linker 1-7 via 1,3‑bis(methylene)benzene; also: acetate salt
notes: Acetate salt
B3: MLB-032 (compound of Example 22; structure given only as drawing CHEM-US-00015) (peptide)
peptide: Ac-CYK(iPr)[dR][2Nal]GCK(iPr)G-NH2
modifications: linker 1-7 via 1,2‑bis(methylene)benzene; also: acetate salt
notes: Acetate salt
B4: Benzoyl-cyclo[Cys-Tyr-Lys(iPr)-(D-Arg)-2Nal-Gly-Cys]-Lys(iPr)-Gly-NH2 (peptide)
peptide: Bz-CYK(iPr)[dR][2Nal]GCK(iPr)G-NH2
modifications: disulfide 1-7; also: acetate salt
notes: Acetate salt; also called MLB-023
B5: cyclo[Mpa-Tyr-Lys(iPr)-(D-Arg)-2Nal-Gly-Cys]-Lys(iPr)-Lys(palmitoyl)-NH(Et) (peptide)
peptide: [Mpa]YK(iPr)[dR][2Nal]GCK(iPr)K(Palmitoyl)-NHEt
modifications: disulfide 1-7; also: acetate salt
notes: Acetate salt; also called MLB-029
B6: cyclo[Mpa-Tyr-Lys(iPr)-(D-Arg)-2Nal-Gly-Cys]-Lys(iPr)-Lys(lauroyl)-NH(Et) (peptide)
peptide: [Mpa]YK(iPr)[dR][2Nal]GCK(iPr)K(Lauroyl)-NHEt
modifications: disulfide 1-7; also: acetate salt
notes: Acetate salt; also called MLB-028
B7: cyclo[Mpa-Tyr-Lys(iPr)-(D-Arg)-2Nal-Gly-Cys]-Lys(iPr)-Lys(Ac)-NH(Et) (peptide)
peptide: [Mpa]YK(iPr)[dR][2Nal]GCK(iPr)K(Ac)-NHEt
modifications: disulfide 1-7; also: acetate salt
notes: Acetate salt; also called MLB-027
B8: Benzoyl-cyclo[Cys-Tyr-Lys(iPr)-(D-Arg)-2Nal-Gly-hCys]-Lys(iPr)-Gly-NH2 (peptide)
peptide: Bz-CYK(iPr)[dR][2Nal]G[hCys]K(iPr)G-NH2
modifications: disulfide 1-7; also: acetate salt
notes: Acetate salt; also called MLB-022
B9: MLB-030 (compound of Example 20; structure given only as drawing CHEM-US-00013) (peptide)
peptide: Bz-CYK(iPr)[dR][2Nal]GCK(iPr)G-NH2
modifications: linker 1-7 via 1,2‑bis(methylene)benzene; also: acetate salt
notes: Acetate salt
B10: Benzoyl-cyclo[hCys-Tyr-Lys(iPr)-(D-Arg)-2Nal-Gly-Cys]-Lys(iPr)-Gly-NH(Et) (peptide)
peptide: Bz-[hCys]YK(iPr)[dR][2Nal]GCK(iPr)G-NHEt
modifications: disulfide 1-7; also: acetate salt
notes: Acetate salt; also called MLB-024
B11: cyclo[Mpa-Tyr-Lys(iPr)-(D-Arg)-2Nal-Gly-Cys]-Arg-Gly-(D-Phe)-Gly-NH2 (peptide)
peptide: [Mpa]YK(iPr)[dR][2Nal]GCRG[dF]G-NH2
modifications: disulfide 1-7; also: acetate salt
notes: Acetate salt; also called MLB-002
B12: cyclo[Mpa-Tyr-Arg-(D-Arg)-2Nal-Gly-Cys]-Arg-Gly-(D-Phe)-Gly-NH2 (peptide)
peptide: [Mpa]YR[dR][2Nal]GCRG[dF]G-NH2
modifications: disulfide 1-7; also: acetate salt
notes: Acetate salt; also called MLB-001
B13: cyclo[Mpa-Tyr-Lys(iPr)-(D-Arg)-2Nal-Gly-Cys]-(D-Arg)-Gly-(D-Phe)-Gly-NH2 (peptide)
peptide: [Mpa]YK(iPr)[dR][2Nal]GC[dR]G[dF]G-NH2
modifications: disulfide 1-7; also: acetate salt
notes: also called MLB-004
B14: cyclo[Mpa-Arg-Tyr-Arg-2Nal-Gly-Cys]-Arg-Gly-(D-Phe)-Gly-NH2 (peptide)
peptide: [Mpa]RYR[2Nal]GCRG[dF]G-NH2
modifications: disulfide 1-7; also: acetate salt
notes: Acetate salt; also called MLB-011
B15: Ac-cyclo[hCys-Tyr-Lys(iPr)-(D-Arg)-2Nal-Gly-Cys]-Lys(iPr)-Gly-NH(Et) (peptide)
peptide: Ac-[hCys]YK(iPr)[dR][2Nal]GCK(iPr)G-NHEt
modifications: disulfide 1-7; also: acetate salt
notes: Acetate salt; also called MLB-026
B16: Phenylacetyl-cyclo[hCys-Tyr-Lys(iPr)-(D-Arg)-2Nal-Gly-Cys]-Lys(iPr)-Gly-NH2 (peptide)
peptide: PhAc-[hCys]YK(iPr)[dR][2Nal]GCK(iPr)G-NH2
modifications: disulfide 1-7; also: acetate salt
notes: also called MLB-025
B17: Ac-cyclo[hCys-Tyr-Lys(iPr)-(D-Arg)-2Nal-Gly-Cys]-Lys(iPr)-Gly-NH2 (peptide)
peptide: Ac-[hCys]YK(iPr)[dR][2Nal]GCK(iPr)G-NH2
modifications: disulfide 1-7; also: acetate salt
notes: Acetate salt; also called MLB-010
B18: Benzoyl-cyclo[hCys-Tyr-Lys(iPr)-(D-Arg)-2Nal-Gly-Cys]-Lys(iPr)-Gly-NH2 (peptide)
peptide: Bz-[hCys]YK(iPr)[dR][2Nal]GCK(iPr)G-NH2
modifications: disulfide 1-7; also: acetate salt
notes: Acetate salt; also called MLB-021

molecular target: T1, Human chemokine receptor CXCR4 (human, UniProt P61073 1-352); test: displacement of [125I]SDF-1α (0.03 nM) from membranes of Chem-1 cells expressing human CXCR4
T1 construct: whole, on cells; Membranes of Chem-1 cells expressing human CXCR4 (0.5 ug membrane protein per aliquot); also called C-X-C chemokine receptor type 4; fusin
Method: Human CXCR4/¹²⁵I-SDF-1α Binding Inhibition Assay: Human chemokine receptor CXCR4 expressed in Chem-1 cells were used in modified HEPES buffer pH 7.4. A 0.5 μg (Membrane protein may change from lot to lot, the concentration used were adjusted as necessary), aliquot was incubated with 0.03 nM [¹²⁵I]SDF-1α for 90 minutes at 25° C. Non-specific binding was estimated in the presence of 30 nM SDF-la. Membranes were filtered and washed, filters were then counted to determine [¹²⁵I]SDF-1α specifically bound. Compounds were screened starting at 10 μM with 11-point dilutions (Valenzuela-Fernandez A, et al. J Biol Chem. 277(18):15677, 2002).

T1 sequence (P61073 whole entry): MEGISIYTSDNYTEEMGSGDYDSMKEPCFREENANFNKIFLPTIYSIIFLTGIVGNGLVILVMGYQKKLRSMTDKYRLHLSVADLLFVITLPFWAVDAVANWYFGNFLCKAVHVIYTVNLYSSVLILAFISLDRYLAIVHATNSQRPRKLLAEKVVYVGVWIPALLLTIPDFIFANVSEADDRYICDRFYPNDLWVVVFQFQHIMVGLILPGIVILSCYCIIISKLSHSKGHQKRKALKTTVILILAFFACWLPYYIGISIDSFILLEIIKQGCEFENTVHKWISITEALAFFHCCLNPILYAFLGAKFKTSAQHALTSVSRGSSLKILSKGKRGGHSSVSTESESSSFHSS

Point of comparison: B12, Binding Kb 7.3 nM. Against it:
- [Mpa]Y[Lys(iPr)][dR][2Nal]GC[Lys(iPr)]G[2Nal]G-NH2 (disulfide 1-7) — 25-fold lower, 0.29 nM
- B1 — 38-fold lower, 0.19 nM
- B2 — 7.4-fold lower, 0.99 nM
- B3 — 61-fold lower, 0.12 nM
- B4 — 7.3-fold lower, 1 nM
- B5 — 2.3-fold lower, 3.2 nM
- B6 — 2.9-fold lower, 2.5 nM
- B7 — 49-fold lower, 0.15 nM
- B8 — 35-fold lower, 0.21 nM
- B9 — 19-fold lower, 0.39 nM
- B10 — 19-fold lower, 0.39 nM
- B11 — 26-fold lower, 0.28 nM
- B13 — 35-fold lower, 0.21 nM
- B14 — higher, > 1000 nM
- B15 — 27-fold lower, 0.27 nM
- B16 — 29-fold lower, 0.25 nM
- B17 — 43-fold lower, 0.17 nM
- B18 — 56-fold lower, 0.13 nM

Point of comparison: B13, IC50 0.7 nM. Against it:
- [Mpa]Y[Lys(iPr)][dR][2Nal]GC[Lys(iPr)]G[2Nal]G-NH2 (disulfide 1-7) — within 1.5-fold, 0.95 nM
- B1 — within 1.5-fold, 0.64 nM
- B2 — 4.7-fold higher, 3.3 nM
- B3 — 1.7-fold lower, 0.4 nM
- B4 — 4.9-fold higher, 3.4 nM
- B5 — 16-fold higher, 11 nM
- B6 — 12-fold higher, 8.2 nM
- B7 — within 1.5-fold, 0.48 nM
- B8 — within 1.5-fold, 0.71 nM
- B9 — 1.9-fold higher, 1.3 nM
- B10 — 1.9-fold higher, 1.3 nM
- B11 — within 1.5-fold, 0.92 nM
- B12 — 34-fold higher, 24 nM
- B15 — within 1.5-fold, 0.89 nM
- B16 — within 1.5-fold, 0.84 nM
- B17 — within 1.5-fold, 0.56 nM
- B18 — 1.7-fold lower, 0.42 nM
